Results taken from patent US20250092426, “CAS ENDONUCLEASES AND RELATED METHODS” (Flagship Pioneering Innovations VII, LLC, published 2025).

Target: T1, CasEnd-21 (synthetic construct)
T1 chain: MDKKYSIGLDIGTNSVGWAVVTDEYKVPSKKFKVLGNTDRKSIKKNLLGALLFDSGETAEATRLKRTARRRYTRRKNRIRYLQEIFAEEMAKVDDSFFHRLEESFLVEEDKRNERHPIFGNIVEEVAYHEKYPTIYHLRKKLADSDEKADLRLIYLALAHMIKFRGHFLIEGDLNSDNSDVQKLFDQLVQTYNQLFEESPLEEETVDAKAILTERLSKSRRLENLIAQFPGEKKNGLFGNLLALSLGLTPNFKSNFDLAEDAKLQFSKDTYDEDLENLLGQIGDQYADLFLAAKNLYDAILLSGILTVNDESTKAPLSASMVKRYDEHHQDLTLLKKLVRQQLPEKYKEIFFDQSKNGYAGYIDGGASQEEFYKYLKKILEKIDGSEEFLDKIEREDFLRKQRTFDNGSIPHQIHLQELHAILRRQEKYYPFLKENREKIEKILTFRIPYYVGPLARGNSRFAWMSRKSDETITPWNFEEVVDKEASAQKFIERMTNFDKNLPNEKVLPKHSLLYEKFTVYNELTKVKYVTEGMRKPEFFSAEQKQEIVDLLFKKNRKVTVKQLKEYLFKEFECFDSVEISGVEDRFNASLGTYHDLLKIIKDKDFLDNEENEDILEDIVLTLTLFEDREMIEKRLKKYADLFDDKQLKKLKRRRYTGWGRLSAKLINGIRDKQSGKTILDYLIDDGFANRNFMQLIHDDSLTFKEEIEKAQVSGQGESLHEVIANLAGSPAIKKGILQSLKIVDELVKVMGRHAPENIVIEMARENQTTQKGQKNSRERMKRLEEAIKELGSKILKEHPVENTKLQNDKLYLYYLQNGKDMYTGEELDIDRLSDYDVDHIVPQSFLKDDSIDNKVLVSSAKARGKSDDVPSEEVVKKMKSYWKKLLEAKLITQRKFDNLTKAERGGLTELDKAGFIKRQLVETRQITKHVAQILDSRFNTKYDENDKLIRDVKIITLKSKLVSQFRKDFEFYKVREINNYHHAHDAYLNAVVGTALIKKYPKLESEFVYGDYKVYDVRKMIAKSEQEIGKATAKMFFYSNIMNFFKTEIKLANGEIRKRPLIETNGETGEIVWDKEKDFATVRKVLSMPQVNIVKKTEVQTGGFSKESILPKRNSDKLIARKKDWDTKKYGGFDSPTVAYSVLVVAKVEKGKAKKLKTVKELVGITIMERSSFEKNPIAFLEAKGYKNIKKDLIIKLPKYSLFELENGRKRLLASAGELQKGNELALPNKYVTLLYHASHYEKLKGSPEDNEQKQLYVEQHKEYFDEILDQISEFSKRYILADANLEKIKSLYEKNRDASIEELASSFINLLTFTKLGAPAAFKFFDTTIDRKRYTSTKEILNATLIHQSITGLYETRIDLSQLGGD
Test: cell_activity; +++; HEK293T; PAM not stated
Method in brief: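 BFP-to-GFP conversion via reverse transcriptase fusion with each Cas endonuclease plus template RNA: 200 ng of each plasmid nucleofected into 250,000 BFP-expressing HEK293T cells (program DS-150). Percent GFP+ cells by flow cytometry at day 4 measured editing.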

B1: BFP-to-GFP template RNA ; BFP reporter protospacer (ssRNA ; dsDNA)
RNA: GCCGAAGCACUGCACGCCGUGUUUUAGAGCUAGAAAUAGCAAGUUAAAAUAAGGCUAGUCCGUUAUCAACUUGAAAAAGUGGCACCGAGUCGGUGCACCCUGACGUACGGCGUGCAGUGCUU
DNA 1: GCCGAAGCACTGCACGCCGT
DNA 2: ACGGCGTGCAGTGCTTCGGC
  activity: ≥ 100 % of reference
